According to US20240342283A1 (SHANDONG BOAN BIOTECHNOLOGY, published 2024):
One block for each binder: values may come before it.

Key:
[1] = target: T1, Receptor tyrosine kinase-like orphan receptor 1 (ROR1) on ROR1-positive cells (human, UniProt Q01973 30-937); test: cell-based or functional assay
[2] = target: T2, Biotinylated Human ROR1 Protein, His, Avitag (Acro biosystem) (human, UniProt Q01973 30-403, biotinylated (Avitag)); test: flow cytometry of CAR-electroporated primary T cells stained with Biotinylated Human ROR1 Protein, His, Avitag
T2 construct: Bought reagent; not shown: His tag and Avitag
T2 sequence (Q01973 30-403 limits assumed): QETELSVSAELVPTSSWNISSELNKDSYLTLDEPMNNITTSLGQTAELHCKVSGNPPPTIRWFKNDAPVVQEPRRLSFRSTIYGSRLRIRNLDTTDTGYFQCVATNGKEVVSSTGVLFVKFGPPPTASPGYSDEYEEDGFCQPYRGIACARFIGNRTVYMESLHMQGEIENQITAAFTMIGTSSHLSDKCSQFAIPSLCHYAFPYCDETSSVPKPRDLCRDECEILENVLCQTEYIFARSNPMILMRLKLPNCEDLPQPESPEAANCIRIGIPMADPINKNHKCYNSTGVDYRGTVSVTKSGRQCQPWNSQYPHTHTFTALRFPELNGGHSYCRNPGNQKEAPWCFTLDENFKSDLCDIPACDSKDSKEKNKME
Excerpt: To screen for CAR activity, the above-obtained T cells were electroporated with PiggyBac plasmids (shown in FIG. 3) with the CAR cassette as well as PiggyBac Transposon mRNA. CAR expression in primary T cells was confirmed by flow cytometry using Biotinylated Human ROR1 Protein, His, Avitag (Acro biosystem) (FIG. 18A).

[3] = target: T1, Receptor tyrosine kinase-like orphan …; test: cell-based or functional assay; remark: listed apart in the source

T1 sequence (Q01973 30-937): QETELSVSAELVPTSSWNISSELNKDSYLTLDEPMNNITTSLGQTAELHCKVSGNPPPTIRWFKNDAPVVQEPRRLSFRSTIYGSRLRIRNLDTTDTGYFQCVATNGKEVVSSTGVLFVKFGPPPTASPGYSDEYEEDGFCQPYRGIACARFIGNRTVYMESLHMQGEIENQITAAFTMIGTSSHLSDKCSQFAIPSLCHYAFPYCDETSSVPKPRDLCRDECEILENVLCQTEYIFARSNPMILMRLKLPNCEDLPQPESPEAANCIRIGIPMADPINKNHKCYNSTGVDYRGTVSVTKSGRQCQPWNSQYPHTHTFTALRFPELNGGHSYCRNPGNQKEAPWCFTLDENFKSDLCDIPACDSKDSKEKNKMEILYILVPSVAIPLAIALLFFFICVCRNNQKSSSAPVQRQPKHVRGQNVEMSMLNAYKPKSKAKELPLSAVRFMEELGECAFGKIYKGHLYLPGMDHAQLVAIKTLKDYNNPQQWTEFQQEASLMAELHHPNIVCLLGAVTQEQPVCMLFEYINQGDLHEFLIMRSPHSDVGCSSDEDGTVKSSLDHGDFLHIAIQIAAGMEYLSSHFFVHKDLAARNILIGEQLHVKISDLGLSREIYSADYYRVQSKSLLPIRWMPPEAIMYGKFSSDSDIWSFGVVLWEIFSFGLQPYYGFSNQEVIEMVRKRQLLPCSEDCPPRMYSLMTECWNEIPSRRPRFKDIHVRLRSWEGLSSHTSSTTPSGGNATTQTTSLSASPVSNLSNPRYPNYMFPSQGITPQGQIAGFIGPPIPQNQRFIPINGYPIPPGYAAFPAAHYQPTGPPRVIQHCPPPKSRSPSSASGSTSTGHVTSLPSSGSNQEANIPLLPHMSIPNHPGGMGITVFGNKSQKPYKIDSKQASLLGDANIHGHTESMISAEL

IFN-gamma cytokine release (pg/mL), co-culture with MDA-MB-231, Effector to Target ratio 1:1 [1]: 20500 pg/mL
IFN-gamma cytokine release (pg/mL), co-culture with MDA-MB-231, Effector to Target ratio 3:1 [1]: 40600 pg/mL
CAR Positive rate [2]: 30.7%
Specific lysis (%) of MDA-MB-231, Effector to Target ratio 1:1 [3]: 12.6%
Specific lysis (%) of MDA-MB-231, Effector to Target ratio 3:1 [3]: 28.9%
B1: R12 ROR1 CAR (other)
CAR: QEQKVESGGRLVTPGGSLTLSCKASGFDFSAYYMSWVRQAPGKGLEWIATIYPSSGKTYYATWVNGRFTISSDNAQNTVDLQMNSLTAADRATYFCARDSYADDGALFNIWGPGTLVTISSGGGGSGGGGSGGGGSELVLTQSPSVSAALGSPAKITCTLSSAHKTDTIDWYQQLQGEAPRYLMQVQSDGSYTKRPGVPDRFSGSSSGADRYLIIPSVQADDEADYYCGADYIGGYVFGGGTQLTVTGTTTPAPRPPTPAPTIASQPLSLRPEACRPAAGGAVHTRGLDFACDIYIWAPLAGTCGVLLLSLVITLYCKRGRKKLLYIFKQPFMRPVQTTQEEDGCSCRFPEEEEGGCELRVKFSRSADAPAYKQGQNQLYNELNLGRREEYDVLDKRRGRDPEMGGKPRRKNPQEGLYNELQKDKMAEAYSEIGMKGERRRGKGHDGLYQGLSTATKDTYDALHMQALPPR
notes: Benchmark chimeric antigen receptor on electroporated primary T cells; also called R12 CAR; Benchmark Control R12

IFN-gamma cytokine release (pg/mL), co-culture with MDA-MB-231, Effector to Target ratio 1:1 [1]: 14600 pg/mL
IFN-gamma cytokine release (pg/mL), co-culture with MDA-MB-231, Effector to Target ratio 3:1 [1]: 36800 pg/mL
CAR Positive rate [2]: 28%
Specific lysis (%) of MDA-MB-231, Effector to Target ratio 1:1 [3]: 10.6%
Specific lysis (%) of MDA-MB-231, Effector to Target ratio 3:1 [3]: 32.6%
B2: RC005c (other)
CAR: EVQLVQSGAEVKKPGATVKISCKVSGYTFTDYEMHWVKQAPGKGLEWIGAIDPETGGTAYNQKFKGRATITADKSSSTAYMELSSLRSEDSAVYYCTPYYGYAMDYWGQGTLVTVSSGGGGSGGGGSGGGGSDIQLTQSPSFLSASVGDRVTITCKASQNVGTNVAWYQQKPGKAPKLLIYWASTRHTGVPSRFSGSGSGTEFTLTISSLQPEDFATYFCQQYSSYPLTFGQGTKLEIKTTTPAPRPPTPAPTIASQPLSLRPEACRPAAGGAVHTRGLDFACDIYIWAPLAGTCGVLLLSLVITLYCKRGRKKLLYIFKQPFMRPVQTTQEEDGCSCRFPEEEEGGCELRVKFSRSADAPAYKQGQNQLYNELNLGRREEYDVLDKRRGRDPEMGGKPRRKNPQEGLYNELQKDKMAEAYSEIGMKGERRRGKGHDGLYQGLSTATKDTYDALHMQALPPR
notes: Chimeric antigen receptor on electroporated Jurkat cells or primary T cells; also called RC005c (hu709 VH4VL2); hu709 VH4VL2 CAR
